Series [1] has as its target T1, CgDHQD (Corynebacterium glutamicum, UniProt O52377).
T1 construct: gene aroQ; full length in pET30a (NdeI/XhoI), C-terminal 6xHis tag not reported cut, E. coli BL21(DE3); by primers starts MPGKILLLN, ends DILANLKK before tag
T1 sequence (O52377 1-145): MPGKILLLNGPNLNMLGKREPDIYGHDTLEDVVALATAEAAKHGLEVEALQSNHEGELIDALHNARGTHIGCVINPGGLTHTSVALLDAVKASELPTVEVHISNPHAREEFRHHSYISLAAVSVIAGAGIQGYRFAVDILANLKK
Nature of the series: X-ray crystal structure, […] A, co-crystallised. Particulars: active site, two binding modes; 0.2 M ammonium citrate tribasic pH 7.0 in the crystallisation solution.

Series [2] addresses T2, CgDHQD (Corynebacterium glutamicum, UniProt O52377, R19A).
T2 construct: gene aroQ; full length in pET30a (NdeI/XhoI), C-terminal 6xHis tag not reported cut, E. coli BL21(DE3); by primers starts MPGKILLLN, ends DILANLKK before tag
Nature of the series: X-ray crystal structure, […] A, crystal soaked with […] DHQ. To be noted: active site; inactive variant; glycerol occupies the R19 side-chain space; pH 5.5. The format is binding.

Series [3] concerns the molecule itself. Nature of the series: SEC; analytical size-exclusion chromatography, Superdex 200 Increase 10/300 GL, 150 mM NaCl, 40 mM Tris-HCl pH 8.0, 1 ml of 1 mg/ml protein, 277 K; calibrated with aldolase, ovalbumin, ribonuclease A, aprotinin.
Substrate in the series “purified protein”: O=C1C[C@@](O)(C(=O)O)C[C@@H](O)[C@@H]1O
Nature of the series: purified protein. Particulars: 50 mM Tris-HCl pH 8.0, room temperature, 20 nM enzyme, 50-2,000 uM substrate. The format is biochemical, Corynebacterium glutamicum.

Series [4] concerns the molecule itself. The series is described as follows: crystal structure; CgDHQD R19A, 0.8 M lithium sulfate, 0.4 M ammonium sulfate, 0.1 M sodium citrate pH 5.5, soaked with 100 mM DHQ; space group C2221, six molecules per asymmetric unit, 2.0 Å.

Positions count from the first letter of the chain named. Names and notes keep the numbering of the source.

T2 sequence (O52377 whole entry R19A): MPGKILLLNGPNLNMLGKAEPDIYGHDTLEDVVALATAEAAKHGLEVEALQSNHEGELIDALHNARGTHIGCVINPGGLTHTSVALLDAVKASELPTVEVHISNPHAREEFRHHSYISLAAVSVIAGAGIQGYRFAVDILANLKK

In the case of `O=C(O)CC(O)(CC(=O)O)C(=O)O` [citrate], on CgDHQD [1], the “X-ray crystal structure, 1.80 A, co-crystallised” value is recorded as “CgDHQD structure in complex with the citrate ion exhibits two different binding modes”.

With `O=C1C[C@@](O)(C(=O)O)C[C@@H](O)[C@@H]1O` [DHQ, 3-dehydroquinic acid], the “X-ray crystal structure, 2.00 A, crystal soaked with 100 mM DHQ” value on CgDHQD [2] is on record as “The DHQ-bound structure of CgDHQD explained the substrate-binding mode of the enzyme”.

B1: 3-dehydroquinate dehydratase from Corynebacterium glutamicum, wild type (enzyme, Corynebacterium glutamicum ATCC 13032, UniProt O52377 1-145, looked up)
chain: T1 sequence (O52377 1-145)
notes: 3-dehydroquinate dehydratase (type II DHQD, EC 4.2.1.10) of Corynebacterium glutamicum ATCC 13032; The XhoI site of pET30a probably adds LE before the His tag (surmised); also called CgDHQD; CgDHQD^WT; source: E. coli BL21 (DE3)-T1R, purified (Ni-NTA, HiTrap Q ion exchange, size exclusion); copies: 12
As to B1, the “stoichiometry N” value in series [3] is 12. For the same molecule, in the series “purified protein”, the Km was 348.20 µM and the turnover number (kcat) was 150.19 s⁻¹.

B2: CgDHQD (Corynebacterium glutamicum ATCC 13032; S103T) (protein)
chain: T1 sequence (O52377 1-145) with S103T
notes: full length in pET30a (NdeI/XhoI), C-terminal 6xHis tag not reported cut, E. coli BL21(DE3); by primers starts MPGKILLLN, ends DILANLKK before tag
In the case of B2, in the series “purified protein”, the Michaelis constant (Km) came to 745.3 µM and the kcat was found to be 199.67 s⁻¹.

B3: 3-dehydroquinate dehydratase from Corynebacterium glutamicum, R19A variant (enzyme, Corynebacterium glutamicum ATCC 13032, UniProt O52377 1-145, looked up)
chain: T1 sequence (O52377 1-145) with R19A
notes: also called CgDHQD^R19A; source: E. coli BL21 (DE3)-T1R, purified in the same manner as wild type (Ni-NTA, ion exchange, size exclusion)
On to B3, for which the binding result in series [4] is listed as “binds”.
